B1: mRNA export factor GLE1 (Saccharomyces cerevisiae), Q12315 (parent)
chain: MRFVFDEVFNSDTDSPEFEETCSTTSSTSSQCPTPEPSPAIKLPSFTKVGTKKLVNESVVILDPALENALRDLNLQSKLIPINEPIVAASSIIVPHSTNMPLPRASHSSLLDNAKNSNATAPLLEAIEESFQRKMQNLVLANQKEIQSIRENKRRVEEQRKRKEEEERKRKEAEEKAKREQELLRQKKDEEERKRKEAEAKLAQQKQEEERKKIEEQNEKERQLKKEHEAKLLQQKDKLGKAVTNFDKISKMFWHYKDKIAQIKQDIVLPIKKADVNVRNLLSRHKRKINPKFGQLTNSNQQLFKIQNELTQLINDTKGDSLAYHWILNFIAKAVVHQAETEVRVKPESALPLGKLTLYLLVQFPELQELFMARLVKKCPFVIGFTCEIDTEKGRQNMGWKRNNENKWEDNTSYDERMGGILSLFAIITRLQLPQEFITTTSHPFPIALSWHILARICNTPLNLITNTHFVILGSWWDAAAVQFLQAYGNQASKLLILIGEELTSRMAEKKYVGAARLRILLEAWQNNNMESFPEMSP
partner: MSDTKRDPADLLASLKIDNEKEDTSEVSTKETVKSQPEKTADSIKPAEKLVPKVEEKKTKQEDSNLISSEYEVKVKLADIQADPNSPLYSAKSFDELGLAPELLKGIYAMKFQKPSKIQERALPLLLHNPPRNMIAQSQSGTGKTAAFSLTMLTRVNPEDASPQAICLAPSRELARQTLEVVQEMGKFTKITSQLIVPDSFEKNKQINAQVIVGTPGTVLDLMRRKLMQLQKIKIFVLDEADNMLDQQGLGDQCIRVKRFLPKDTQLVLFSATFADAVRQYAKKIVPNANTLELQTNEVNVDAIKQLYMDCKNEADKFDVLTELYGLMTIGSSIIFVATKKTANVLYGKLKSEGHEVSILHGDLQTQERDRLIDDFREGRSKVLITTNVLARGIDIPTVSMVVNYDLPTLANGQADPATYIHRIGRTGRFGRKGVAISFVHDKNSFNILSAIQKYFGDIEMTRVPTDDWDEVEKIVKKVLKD
B2: ATP-dependent RNA helicase DBP5 (Saccharomyces cerevisiae), P20449 (parent)
chain: B1 partner
partner: B1 chain

The values that follow come from IntAct's records for PubMed 21441902.

In one experiment the parent is B1. The following applies: with dbp5_yeast DBP5, P20449.
As to MRFVFDEVFNSDTDSPEFEETCSTTSSTSSQCPTPEPSPAIKLPSFTKVGTKKLVNESVVILDPALENALRDLNLQSKLIPINEPIVAASSIIVPHSTNMPLPRASHSSLLDNAKNSNATAPLLEAIEESFQRKMQNLVLANQKEIQSIRENKRRVEEQRKRKEEEERKRKEAEEKAKREQELLRQKKDEEERKRKEAEAKLAQQKQEEERKKIEEQNEKERQLKKEHEAKLLQQKDKLGKAVTNFDKISKMFWHYKDKIAQIKQDIVLPIKKADVNVRNLLSRHKRKINPKFGQLTNSNQQLFKIQNELTQLINDTKGDSLAYHWILNFIAKAVVHQAETEVRVKPESALPLGKLTLYLLVQFPELQELFMARLVKKCPFVIGFTCEIDTEKGRQNMGWKRNNENKWEDNTSYDERMGGILSLFAIITRLQLPQEFITTTSHPFPIALSWHILARICNTPLNLITNTHFVILGSWWDAAAVQFLQAYGNQASKLLILIGEELTSRMAEKKYDGADRLRDLLEAWQNNNMESFPEMSP [V513D;A516D;I520D], the “effect of a mutation on the interaction” value is reported as “disrupting interaction”.

Another experiment covers variants of B2. The following applies: with gle1_yeast GLE1, Q12315.
On to MSDTKRDPADLLASLKIDNEKEDTSEVSTKETVKSQPEKTADSIKPAEKLVPKVEEKKTKQEDSNLISSEYEVKVKLADIQADPNSPLYSAKSFDELGLAPELLKGIYAMKFQKPSKIQERALPLLLHNPPRNMIAQSQSGTGKTAAFSLTMLTRVNPEDASPQAICLAPSRELARQTLEVVQEMGKFTKITSQLIVPDSFEKNKQINAQVIVGTPGTVLDLMRRKLMQLQKIKIFVLDEADNMLDQQGLGDQCIRVKRFLPKDTQLVLFSATFADAVRQYAKKIVPNANTLELQTNEVNVDAIKQLYMDCKNEADKFDVLTELYGVMTIGSSIIFVATKKTANVLYGKLKSEGHEVSILHGDLQTQERDRLIDDFREGRSKVLITTNVLARGIDIPTVSMVVNYDLPTLANGQADPATYIHRIGRTGRFGRKGVAISFVHDKNSFNILSAIQKYFGDIEMTRVPTDDWDEVEKIVAKVLAD [L327V;K477A;K481A], for which the “effect of a mutation on the interaction” value was “disrupting interaction”.
